# Measurements as given in patent publication US20160193316A1 (priority 1994, published 2016).
# No end group written: not given here.
# What was measured:
# DRB1*1302 (DR6w19) = target: T1, DRB1*1302 (DR6w19) (Homo sapiens, UniProt P01903+P01911, A100E/A169T/K41T/L162R/M171V/P40S/Q125H/Q178H/Q39Y/Q99D/R42S/S66N/T262R/V115G/W38E/Y61H); assay: HLA class II peptide binding assay; conditions: for DR6w19 binding data: Table XIXb
# T1 construct: endogenous in cells; host or cells: H0301
# DRB1*1501 (DR2w2β1) = target: T2, DRB1*1501 (DR2w2β1) (Homo sapiens, UniProt P01903+P01911); assay: HLA class II peptide binding assay; conditions: for DR2w2β1 binding information: unit not given; for DR2w2β1 binding data: Table XIXb
# T2 construct: expressed in transfected cells; host or cells: L466.1 (fibroblasts)
# DRB1*0101 (DR1) = target: T3, DRB1*0101 (DR1) (Homo sapiens, UniProt P01903+P01911, A100R/D57E/F55L/F60I/F76Y/I96L/L162R/M171V/P40L/Q125E/R42F/V115G/Y59C); assay: HLA class II peptide binding assay; conditions: for DR1 binding data: Table XIXb, Malaria Super Motif Peptides With Binding Data; for DR1 binding information: unit not given
# T3 construct: endogenous in cells; host or cells: LG2
# DRB1*0802 (DR8w2) = target: T4, DRB1*0802 (DR8w2) (Homo sapiens, UniProt P01903+P01911, A100R/A103L/A169T/F76Y/H45Y/I96F/K41T/L162R/M171V/P40S/Q125H/Q178H/Q39Y/Q99D/R218S/R42G/S66Y/V115G/W38E); assay: biochemical; format: binding
# T4 construct: endogenous in cells; host or cells: OLL
# DRB1*0701 (DR7) = target: T5, DRB1*0701 (DR7) (Homo sapiens, UniProt P01903+P01911, A100R/A102G/A103Q/D57E/D86V/E43K/F76Y/K127E/L162R/M171V/P40G/Q125H/Q99D/R33Q/R42Y/R54Q/S133A/S66F/T210M/V115G/Y107V/Y59L/Y89S); assay: biochemical; format: binding
# T5 construct: endogenous in cells; host or cells: Pitout
# DRB1*0901 (DR9) = target: T6, DRB1*0901 (DR9) (Homo sapiens, UniProt P01903+P01911, A100R/A103E/D57H/D86V/F55Y/F60I/F76Y/I96F/K127E/L162R/M171V/P40D/Q125H/Q99R/R33Q/R42F/S133A/S66N/T210M/V115G/W38K/Y107V/Y59G/Y89S); assay: biochemical; format: binding
# T6 construct: endogenous in cells; host or cells: HID
# DRB1*1101 (DR5w11) = target: T7, DRB1*1101 (DR5w11) (Homo sapiens, UniProt P01903+P01911, A100R/A169T/A87E/I96F/K41T/L162R/M171V/P40S/Q125H/Q178H/Q39Y/Q99D/R42S/S66Y/T262R/V115G/W38E); assay: biochemical; format: binding
# T7 construct: endogenous in cells; host or cells: Sweig
# DRB1*0301 (DR3) = target: T8, DRB1*0301 (DR3) (Homo sapiens, UniProt P01903+P01911, A100K/A102G/A103R/A169T/F55Y/I96L/K41T/L162R/M171V/P40S/Q125H/Q178H/Q39Y/R42S/S66N/T106N/T262R/W38E/Y61H); assay: HLA class II peptide binding assay (pH 4.5); conditions: for DR3 binding information: unit not given; for DR3 binding data: Table XIXb
# T8 construct: endogenous in cells; host or cells: MAT
# DRB1*0405 (DR4w15) = target: T9, DRB1*0405 (DR4w15) (Homo sapiens, UniProt P01903+P01911, A100R/A169T/D86S/F76Y/I96L/K127E/L162R/M171V/N62H/P40V/Q125Y/R42H/S133A/S149N/S66Y/V115G/V209L/W38E); assay: HLA class II peptide binding assay; conditions: for DR4w15 binding data: Table XIXb; for DR4w15 binding information: unit not given
# T9 construct: endogenous in cells; host or cells: KT3
# DRB5*0101 (DR2w2β2) = target: T10, DRB5*0101 (DR2w2β2) (Homo sapiens, UniProt P01903+Q30154); format: binding
# T10 construct: expressed in transfected cells; host or cells: L416.3 (fibroblasts) or GM3107
# DRB4*0101 (DRw53) = target: T11, DRB4*0101 (DRw53) (Homo sapiens, UniProt P01903+P13762, G164S); assay: HLA class II peptide binding assay (pH 5.0); conditions: for DRw53 binding data: Table XIXb
# T11 construct: expressed in transfected cells; host or cells: L257.6 (fibroblasts)
# DRB1*0401 (DR4w4) = target: T12, DRB1*0401 (DR4w4) (Homo sapiens, UniProt P01903+P01911, A100K/A169T/F76Y/I96L/K127E/L162R/M171V/N62H/P40V/Q125Y/R42H/S133A/S149N/S66Y/V115G/V209L/W38E); assay: HLA class II peptide binding assay; conditions: for DR4w4 binding data: Table XIXb; for DR4w4 binding information: unit not given
# T12 construct: endogenous in cells; host or cells: Preiss
# DRB1*1201 (DR5w12) = target: T13, DRB1*1201 (DR5w12) (Homo sapiens, UniProt P01903+P01911, A100R/A169T/D57E/D86V/F55L/H45Y/K41T/L162R/M171V/P40S/Q125H/Q178H/Q39Y/Q99D/R42G/S66L/T262R/V114A/V67L/W38E/Y59H/Y61H/Y89S); assay: HLA class II peptide binding assay; conditions: Table XIXb; DR5w12
# T13 construct: endogenous in cells; host or cells: Herluf
# HLA-A*0301 = target: T14, HLA-A*0301 (Homo sapiens, UniProt P04439); assay: HLA class I peptide binding assay; conditions: Malaria A3 motif peptides, Table XVI; binding value to HLA-A*0301, unit not given
# T14 construct: endogenous in cells; host or cells: GM3107
# HLA-A*1101 = HLA-A*1101 (Homo sapiens, UniProt P04439, A114D/D185E/E176A/F33Y/L180Q/S129P/T187R); assay: HLA class I peptide binding assay; conditions: Table XVII, malaria A11 motif peptides; binding value unit not given
# [1] = DR3a motif peptides, exemplary 15-mer containing the core sequence
# T1 sequence (P01903 26-254, other chains not shown): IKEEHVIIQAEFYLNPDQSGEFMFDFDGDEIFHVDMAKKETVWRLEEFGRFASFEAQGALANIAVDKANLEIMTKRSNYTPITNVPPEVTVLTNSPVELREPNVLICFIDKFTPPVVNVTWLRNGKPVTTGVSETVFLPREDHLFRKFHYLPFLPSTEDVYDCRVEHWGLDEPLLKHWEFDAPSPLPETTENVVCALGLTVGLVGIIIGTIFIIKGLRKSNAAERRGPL
# T7 sequence (P01903 26-254, other chains not shown): as above
# T3 sequence (P01903 26-254 partner, other chains not shown): as the sequence (P01903 26-254, other chains not shown) above
# T12 sequence (P01903 26-254 partner, other chains not shown): as the sequence (P01903 26-254, other chains not shown) above
Sequence,DR4w15 binding data (DRB1*0405 (DR4w15)),DR2w2β2 binding data (DRB5*0101 (DR2w2β2)),DR1 binding data (DRB1*0101 (DR1); DR1),DR8w2 binding data (DRB1*0802 (DR8w2)),DR7 binding data (DRB1*0701 (DR7)),DR4w4 binding data (DRB1*0401 (DR4w4)),DR5w12 binding data (DRB1*1201 (DR5w12)),DR5w11 binding data (DRB1*1101 (DR5w11)),DR6w19 binding data (DRB1*1302 (DR6w19)),DR9 binding data (DRB1*0901 (DR9)),DR3 binding data (DRB1*0301 (DR3)),further results
PDSIQDSLKESRKLN [Peptide 35.0171],–,–,–,–,–,–,–,–,–,–,–,"IC50 (DRB1*1302 (DR6w19)): > 20 µM; IC50 (DRB1*1501 (DR2w2β1)): 2290 nM; IC50 (DRB1*0101 (DR1); read-out: Binding capacity (IC50 nM) DR1, DR1): > 20000 nM; IC50 (DRB1*0802 (DR8w2)): > 20 µM; IC50 (DRB1*0701 (DR7)): > 20 µM; IC50 (DRB1*0901 (DR9)): > 20 µM; IC50 (DRB1*1101 (DR5w11)): > 20 µM; Alleles bound (DR3) (DRB1*0301 (DR3); binding to DR3, Table XXXIV): DR3"
IAGGLALLA,0.0014,0.0013,0.0160,0.0004,-0.0003,0.0014,0.0007,-0.0002,–,–,–,DRw53 binding data (DRB4*0101 (DRw53)): -0.0005; A*0301 (binding information) (HLA-A*0301): 0.0002
IKNSEKDEI,–,–,–,–,–,–,–,–,–,–,–,DR4w15 binding information (DRB1*0405 (DR4w15); Malaria DR3b motif peptides): -0.0010; DR2w2β1 binding information (DRB1*1501 (DR2w2β1); Malaria DR3b motif peptides): -0.0021; DR2w2β2 binding information (DRB5*0101 (DR2w2β2)): -0.0160; DR1 binding information (DRB1*0101 (DR1); Malaria DR3b motif peptides): 0.0002; DR8w2 binding information (DRB1*0802 (DR8w2)): -0.0007; DR7 binding information (DRB1*0701 (DR7)): -0.0011; DR4w4 binding information (DRB1*0401 (DR4w4); Malaria DR3b motif peptides): 0.0030; DR5w11 binding information (DRB1*1101 (DR5w11)): -0.0003; DR3 binding information (DRB1*0301 (DR3); Malaria DR3b motif peptides): -0.0017
VVPGAATPY,-0.0014,0.0053,0.1100,0.0026,0.0160,0.0057,0.0061,0.0036,0.0017,0.0200,-0.0008,DR2w2β1 binding data (DRB1*1501 (DR2w2β1)): 0.0008; A*1101 binding information (HLA-A*1101): 0.0002
VCNDEVDLY,–,–,–,–,–,–,–,–,–,–,–,"DR4w15 binding information (DRB1*0405 (DR4w15); [1]): -0.0004; DR2w2β1 binding information (DRB1*1501 (DR2w2β1); [1]): -0.0006; DR2w2β2 binding information (DRB5*0101 (DR2w2β2)): 0.1300; DR1 binding information (DRB1*0101 (DR1); [1]): 0.0003; DR8w2 binding information (DRB1*0802 (DR8w2)): -0.0003; DRw53 binding information (DRB4*0101 (DRw53); DR3a motif peptides, unit not given, exemplary 15-mer containing the core sequence): -0.0010; DR7 binding information (DRB1*0701 (DR7)): -0.0003; DR4w4 binding information (DRB1*0401 (DR4w4); [1]): -0.0014; DR5w11 binding information (DRB1*1101 (DR5w11)): 0.0001; DR3 binding information (DRB1*0301 (DR3); [1]): -0.0006"
VHDLISDMI,0.0075,0.0061,0.0130,0.0096,0.0100,0.0310,0.0001,0.0037,0.0004,0.0430,0.0100,DRw53 binding data (DRB4*0101 (DRw53)): 0.0940
LAILSVSSF,0.0270,0.0130,0.1000,0.0013,0.0500,0.0078,0.1200,0.0370,0.0930,0.1100,-0.0043,DR2w2β1 binding data (DRB1*1501 (DR2w2β1)): 0.5000
